Assay results from patent US20110262929A1 (FORERUNNER PHARMA RESEARCH, published 2011).

T1: GST_HS6ST2_C1 (human, UniProt Q96MM7 454-539)
T1 construct: Expressed in E. coli BL21 (DE3); whole cell lysate blotted after SDS-PAGE; also called GST fusion of amino acids 308-393 of HS6ST2_N-short; not shown: N-terminal glutathione S-transferase (GST) of vector pGEX-6P-1, with the vector's linker
T1 sequence: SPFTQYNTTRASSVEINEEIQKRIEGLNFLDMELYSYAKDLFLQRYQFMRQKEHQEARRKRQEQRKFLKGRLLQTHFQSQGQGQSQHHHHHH

T2: secreted HS6ST2 (sHS6ST2_FLAG) (human, UniProt Q96MM7 170-605)
T2 construct: Purified from CHO supernatant on anti-FLAG gel; also called soluble HS6ST2
T2 sequence: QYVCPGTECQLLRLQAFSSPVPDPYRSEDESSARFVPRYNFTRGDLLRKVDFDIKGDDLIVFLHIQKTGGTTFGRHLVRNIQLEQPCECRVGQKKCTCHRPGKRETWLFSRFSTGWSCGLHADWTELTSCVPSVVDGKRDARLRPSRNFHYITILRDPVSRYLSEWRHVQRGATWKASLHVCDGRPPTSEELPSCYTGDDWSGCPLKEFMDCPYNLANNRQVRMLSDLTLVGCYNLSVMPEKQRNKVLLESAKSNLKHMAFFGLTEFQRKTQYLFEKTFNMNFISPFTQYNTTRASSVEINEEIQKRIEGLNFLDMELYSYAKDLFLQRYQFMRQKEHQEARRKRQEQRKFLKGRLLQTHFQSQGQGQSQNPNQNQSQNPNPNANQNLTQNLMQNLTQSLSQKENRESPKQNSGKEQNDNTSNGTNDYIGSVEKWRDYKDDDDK

T3: GST_HS6ST2_C2 (human, UniProt Q96MM7 525-605)
T3 construct: Expressed in E. coli BL21 (DE3); whole cell lysate blotted after SDS-PAGE; also called GST fusion of amino acids 379-459 of HS6ST2_N-short; not shown: N-terminal glutathione S-transferase (GST) of vector pGEX-6P-1, with the vector's linker
T3 sequence: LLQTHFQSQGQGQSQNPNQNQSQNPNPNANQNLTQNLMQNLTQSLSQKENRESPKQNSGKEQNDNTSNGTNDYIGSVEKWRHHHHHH


Key:
[1] = target: T1, GST_HS6ST2_C1; experiment: Western blot of E. coli whole cell lysate, antibody 10 µg/mL
Description: (§1) GST_HS6ST2_N, GST_HS6ST2_mid, GST_HS6ST2_C, GST_HS6ST2_C1 and GST_HS6ST2_C2 were expressed in BL21 (DE3) Competent Cells (Takara Bio), and the whole cell lysates were resolved by SDS-PAGE electrophoresis and then transferred to PVDF membranes (Immobilon-P, Millipore) and Western blotted with the anti-HS6ST2 antibodies. The anti-HS6ST2 antibodies were used at 10 μg/mL, while the secondary antibody (HRP-anti mIgG, GE Healthcare) was used as a 3000-fold dilution, and blots were detected with ECL Western Blotting Detection Reagents (GE Healthcare). As a result, the anti-HS6ST2 antibodies A1, A10, B5, B6 and C8 bound to GST_HS6ST2_C2, A6 bound to GST_HS6ST2_C1, and C10 bound to GST_HS6ST2_N.

[2] = target: T2, secreted HS6ST2 (sHS6ST2_FLAG); experiment: sandwich ELISA: A6 coated at 5 µg/mL as capture, B5-biotin and C8-biotin (3 µg/mL each, mixed) as detectors
[3] = target: T3, GST_HS6ST2_C2; experiment: Western blot of E. coli whole cell lysate, antibody 10 µg/mL
Description: as §1

[4] = target: T2, secreted HS6ST2 (sHS6ST2_FLAG); experiment: flow cytometry: sHS6ST2_FLAG (50 µg/mL) held on heparan sulfate of DG44 cells, detected with C8 as primary antibody
Description: Each anti-HS6ST2 antibody or mouse IgG1 (mIgG1, BD Biosciences Pharmingen) as a negative control was added to a final concentration of 2 μg/mL into 96-well U-bottom plates (Becton Dickinson) containing 5×10⁴ cells suspended in PBS (FACS buffer) supplemented with 0.5% bovine serum albumin and 0.1% NaN₃. After reaction on ice for 1 hour, the cells were washed with FACS buffer. Then, an FITC-labeled anti-mouse antibody (Goat F(ab′)₂ Fragment Anti-mouse IgG (H+L)-FITC, Beckman Coulter) was added as a secondary antibody, and the mixture was reacted on ice for 1 hour. The cells were washed with FACS buffer, and then suspended in FACS buffer containing 10 μg/mL propidium iodide (PI) (Sigma) and assayed by a flow cytometer (FACS Calibur, Becton Dickinson). The assay data were analyzed by CELLQuest software (Becton Dickinson), and the geo-mean of FITC fluorescent intensity was calculated for the PI-negative population of viable cells.
Then, binding of soluble HS6ST2 (sHS6ST2_FLAG) to DG44 cells was evaluated. DG44 cells were enzymatically treated, and then reacted with sHS6ST2_FLAG prepared at 50 μg/mL in FACS buffer at 4° C. for 3 hours. After washing, the cells were analyzed by flow cytometry in the same manner as in Example 3. The anti-HS6ST2 antibody C8 was used as a primary antibody and mIgG1 (BD Biosciences Pharmingen) was used as a negative control. […]

Row | binding result [1] | binding result [2] | binding result [3] | binding result [4] | Binder
1 | binds | binds | – | – | anti-HS6ST2 antibody A6 (antibody, mouse IgG1, V domains shown, also called clone A6) VH: EVQLQQSGAELVRSGASVKLSCTASGFNIKDYYMHWVKQRPEQGLEWIGWIDPENDDTEYAPKFQGRATMTADTSSNTAYLQLSSLTSEDTAVYYCNAGYYGSGFAYWGQGTLVTVSA VL: DIVMTQSPSSLTVTAGEKVTMRCKSSQSLLNSGNQKNYLTWYQQKPGQPPRLLIYWASIRESGVPDRFTGSGSGTDFTLTISSVQAEDLAVYYCQNDYSYPLTFGTGTKLELK
2 | – | – | binds | binds | anti-HS6ST2 antibody C8 (antibody, mouse IgG1, V domains shown, also called clone C8; C8-biotin) VH: EVQLQQSGAELVRSGASVKLSCTASGFNIKDYYMHWVKQRPEQGLEWIGWIDPDNDDTEYAPKFQGKATMTADTSSNTAYLQLSSLTSEDTAVYYCNAGNGNYWFAYWGQGTLVTVSA VL: DVVMTQTPLSLPVSLGDQASISCRSSQSLVHSNGNTYLHWNLQKPGQSPKLLIYKVSNRFSGVPDRFSGSGSGTDFTLKISRVEAEDLGVYFCSQTTLVPYTFGGGTKLEIK
